The results in this text go back to patent publication US20240116985A1 (published 2024).

One may read the EC50 as the concentration at which the effect is half-maximal. A low value points to greater potency.

Starred links: 1 amine or outer side, 2 acyl side, 3 side chain; linkers in the order of their positions; H or OH if unused. Positions of bridges follow the written chain, without caps; N, C: chain ends. Non-standard residues stand in square brackets, D forms with d. Primed or numbered codes have the meaning given here. B5(4) = 2,2-bis(4-pentenyl)glycine = 2-amino-2-(pent-4-en-1-yl)hept-6-enoic acid (stitching residue), C=CCCCC(CCCC=C)(N[*:1])C(=O)[*:2]; B5(5) = 2,2-bis(4-pentenyl)glycine, 2-amino-2-(pent-4-en-1-yl)hept-6-enoic acid (stitching residue), C=CCCCC(CCCC=C)(N[*:1])C(=O)[*:2]; B5(9) = 2-amino-2-(pent-4-en-1-yl)hept-6-enoic acid (2,2-bis(4-pentenyl)glycine), C=CCCCC(CCCC=C)(N[*:1])C(=O)[*:2]; 23FF = 2,3-difluoro-L-phenylalanine, O=C([C@H](Cc1cccc(F)c1F)N[*:1])[*:2]; Phe(3-CF3) = N[C@@H](Cc1cccc(C(F)(F)F)c1)C(=O)O; Phe(3,5-F2) = N[C@@H](Cc1cc(F)cc(F)c1)C(=O)O; Bta = N[C@@H](Cc1csc2ccccc12)C(=O)O; αAllylPro = C=CC[C@@]1(C(=O)O)CCCN1; S8 = C=CCCCCCC[C@](C)(N)C(=O)O

The labels stand for the following.
T1: full-length beta-Catenin (Uniprot ID P35222) (Homo sapiens (Human), UniProt P35222 1-781)
T1 construct: also called bCat; B-Catenin
T1 sequence: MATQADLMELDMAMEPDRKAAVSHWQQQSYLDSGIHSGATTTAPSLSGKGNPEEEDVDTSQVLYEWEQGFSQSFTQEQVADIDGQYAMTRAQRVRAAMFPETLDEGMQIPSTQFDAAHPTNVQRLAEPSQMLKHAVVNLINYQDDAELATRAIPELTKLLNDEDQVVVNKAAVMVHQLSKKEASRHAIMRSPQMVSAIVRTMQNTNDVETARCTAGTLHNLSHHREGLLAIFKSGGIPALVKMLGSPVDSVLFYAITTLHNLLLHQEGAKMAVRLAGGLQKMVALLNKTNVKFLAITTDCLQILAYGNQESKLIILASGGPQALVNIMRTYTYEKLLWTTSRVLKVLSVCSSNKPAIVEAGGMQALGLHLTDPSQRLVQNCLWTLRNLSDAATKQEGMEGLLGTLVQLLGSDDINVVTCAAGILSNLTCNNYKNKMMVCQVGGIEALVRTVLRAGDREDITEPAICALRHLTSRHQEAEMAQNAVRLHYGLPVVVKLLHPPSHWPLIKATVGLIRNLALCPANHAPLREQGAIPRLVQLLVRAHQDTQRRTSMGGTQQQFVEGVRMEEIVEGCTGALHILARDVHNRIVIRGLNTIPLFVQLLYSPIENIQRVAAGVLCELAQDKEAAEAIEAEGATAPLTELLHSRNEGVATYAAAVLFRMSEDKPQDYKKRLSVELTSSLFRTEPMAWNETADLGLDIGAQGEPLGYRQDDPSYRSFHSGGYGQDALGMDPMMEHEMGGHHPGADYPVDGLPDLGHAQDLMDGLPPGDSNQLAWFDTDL

T2: full-length beta-Catenin (Uniprot ID P35222) (Homo sapiens (Human), UniProt P35222 1-781)
T2 construct: also called bCat; B-Catenin
T2 sequence: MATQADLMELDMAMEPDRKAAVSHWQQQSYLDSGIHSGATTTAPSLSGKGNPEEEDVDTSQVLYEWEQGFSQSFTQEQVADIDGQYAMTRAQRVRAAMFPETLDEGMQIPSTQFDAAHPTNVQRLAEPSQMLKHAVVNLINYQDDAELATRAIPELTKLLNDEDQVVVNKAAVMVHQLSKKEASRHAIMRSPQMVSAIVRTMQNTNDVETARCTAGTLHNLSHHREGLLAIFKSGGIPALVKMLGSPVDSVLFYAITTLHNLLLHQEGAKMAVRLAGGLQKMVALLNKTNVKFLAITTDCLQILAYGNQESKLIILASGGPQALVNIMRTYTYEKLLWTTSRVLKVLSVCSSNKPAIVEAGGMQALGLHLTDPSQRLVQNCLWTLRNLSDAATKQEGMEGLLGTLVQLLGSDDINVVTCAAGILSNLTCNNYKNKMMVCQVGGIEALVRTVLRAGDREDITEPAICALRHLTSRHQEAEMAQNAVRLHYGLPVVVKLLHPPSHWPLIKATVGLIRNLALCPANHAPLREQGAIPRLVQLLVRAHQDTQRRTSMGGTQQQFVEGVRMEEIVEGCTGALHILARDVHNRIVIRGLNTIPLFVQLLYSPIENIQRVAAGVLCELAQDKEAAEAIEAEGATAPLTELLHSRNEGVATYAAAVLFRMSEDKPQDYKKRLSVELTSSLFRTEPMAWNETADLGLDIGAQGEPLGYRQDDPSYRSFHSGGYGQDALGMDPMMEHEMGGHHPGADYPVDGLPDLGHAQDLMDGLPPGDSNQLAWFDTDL

B1: I-558 (peptide)
peptide: XDLXDDAAFQXFXQ
modifications: not fully specified; Ac-PL3-Asp-Leu-B5-Asp-Asp-Ala-Ala-Phe-Gln-S8-Phe-BztA-Gln-NH2; N-terminal acetyl, C-terminal amide; non-natural: PL3(1), B5(4), S8(11), BztA(13); staples PL3(1)-B5(4) and B5(4)-S8(11)
B2: I-566 (peptide)
peptide: XDVXDDAAFNXFXQ
modifications: not fully specified; Ac-PL3-Asp-Val-B5-Asp-Asp-Ala-Ala-Phe-Asn-S8-Phe-BztA-Gln-NH2; N-terminal acetyl, C-terminal amide; non-natural: PL3(1), B5(4), S8(11), BztA(13); staples PL3(1)-B5(4) and B5(4)-S8(11)
B3: I-565 (peptide)
peptide: XDLXDDAAFNXFXH
modifications: not fully specified; Ac-PL3-Asp-Leu-B5-Asp-Asp-Ala-Ala-Phe-Asn-S8-Phe-BztA-His-NH2; N-terminal acetyl, C-terminal amide; non-natural: PL3(1), B5(4), S8(11), BztA(13); staples PL3(1)-B5(4) and B5(4)-S8(11)
B4: I-550 (peptide)
peptide: XDIXDDAAFNXFXQ
modifications: not fully specified; Ac-PL3-Asp-Ile-B5-Asp-Asp-Ala-Ala-Phe-Asn-S8-2OMeF-BztA-Gln-NH2; N-terminal acetyl, C-terminal amide; non-natural: PL3(1), B5(4), S8(11), 2OMeF(12), BztA(13); staples PL3(1)-B5(4) and B5(4)-S8(11)
B5: I-559 (peptide)
peptide: XDLXDDAAFQXFXQ
modifications: not fully specified; Ac-PL3-Asp-Leu-B5-Asp-Asp-Ala-Ala-Phe-Gln-S8-Phe-BztA-Gln-NH2; N-terminal acetyl, C-terminal amide; non-natural: PL3(1), B5(4), S8(11), BztA(13); staples PL3(1)-B5(4) and B5(4)-S8(11)
B6: I-373 (peptide)
peptide: Ac-[αAllylPro]DA[B5(4)]DDAA[Phe(3-CF3)]V[S8]F[Bta]Q-NH2
modifications: staple 1-4, 4-11
notes: Stapled peptide composition (olefin metathesis)
B7: I-378 (peptide)
peptide: Ac-[αAllylPro]DA[B5(9)]DDAA[Phe(3-CF3)]Q[S8]F[Bta]Q-NH2
modifications: staple 1-4, 4-11; not fully specified; printed as Ac-PL3-Asp-Ala-B5-Asp-Asp-Ala-Ala-3F3MeF-Gln-S8-Phe-BztA-Gln-NH2
notes: Stapled peptide
B8: I-382 (peptide)
peptide: XDAXDNAAFVXFXQ
modifications: not fully specified; Ac-PL3-Asp-Ala-B5-Asp-Asn-Ala-Ala-Phe-Val-S8-3FF-BztA-Gln-NH2: N-terminal acetyl, C-terminal amide; non-natural PL3(1), B5(4), S8(11), 3FF(12), BztA(13); staples PL3-B5 and B5-S8
notes: Stapled peptide
B9: I-396 (peptide)
peptide: XDAXDHAAFVXFXQ
modifications: not fully specified; Ac-PL3-Asp-Ala-B5-Asp-His-Ala-Ala-Phe-Val-S8-3FF-BztA-Gln-NH2: N-terminal acetyl, C-terminal amide; non-natural PL3(1), B5(4), S8(11), 3FF(12), BztA(13); staples PL3-B5 and B5-S8
notes: Stapled peptide
B10: I-379 (peptide)
peptide: Ac-[αAllylPro]DA[B5(9)]DDAA[Phe(3-CF3)]Q[S8]F[Bta]Q-NH2
modifications: staple 1-4, 4-11; not fully specified; printed as Ac-PL3-Asp-Ala-B5-Asp-Asp-Ala-Ala-3F3MeF-Gln-S8-Phe-BztA-Gln-NH2
notes: Stapled peptide
B11: I-394 (peptide)
peptide: Ac-[αAllylPro]DA[B5(9)]DEAAFV[S8][Phe(3,5-F2)][Bta]Q-NH2
modifications: staple 1-4, 4-11
notes: as for B6
B12: I-380 (peptide)
peptide: Ac-[αAllylPro]DA[B5(9)]DDAA[Phe(3-CF3)]Q[S8]F[Bta]Q-NH2
modifications: staple 1-4, 4-11; not fully specified; printed as Ac-PL3-Asp-Ala-B5-Asp-Asp-Ala-Ala-3F3MeF-Gln-S8-Phe-BztA-Gln-NH2
notes: Stapled peptide
B13: I-381 (peptide)
peptide: XDAXDNAAFVXFXQ
modifications: not fully specified; Ac-PL3-Asp-Ala-B5-Asp-Asn-Ala-Ala-Phe-Val-S8-3FF-BztA-Gln-NH2: N-terminal acetyl, C-terminal amide; non-natural PL3(1), B5(4), S8(11), 3FF(12), BztA(13); staples PL3-B5 and B5-S8
notes: Stapled peptide

The first experiment has as its target T1, full-length beta-Catenin (Uniprot ID …). Nature of the experiment: fluorescence polarization competition; displacement of 5FAM-TCF4(10-53) from full-length beta-catenin. How it is done:
(§1) The plate was incubated protected from light for 60 minutes at 20° C. prior to read. Reads were performed on a CLARIOstar plate reader (BMG Labtech) in duplicate, and data were fitted to a 1:1 binding model with hill slope using an in-house script. All provided concentrations are final concentrations.
For orientation: Fluorescence polarisation rises when a labelled molecule tumbles more slowly, as on binding a larger partner.
Molecule Ac-[αAllylPro]DL[B5(5)]DDAAFQ[S8]F[Bta]H-NH2 (staple 1-4, 4-11) [I-560] showed a 50% effective concentration (EC50) of 81 nM. B1 had a half-maximal effective concentration (EC50) of 56 nM.

As for B2, the concentration giving a half-maximal response (EC50) is 76 nM. Still for that read-out and setting: the value for Ac-[αAllylPro]DL[B5(4)]DEAAFN[S8]F[Bta]H-NH2 (staple 1-4, 4-11, Stapled (stitched) peptide composition) [I-543] was 32 nM; that for B3 was 13 nM; that for B4 was 30 nM.

In the case of B5, the EC50 turned out to be 43 nM. This EC50 and that of the molecule before are within 1.5-fold of each other.

For the next experiment, the target named is T2, full-length beta-Catenin (Uniprot ID …). Put plainly: fluorescence polarization competition; 10 nM full-length beta-catenin, competitor 10 nM 5FAM-TCF4(10-53). How it is done: as §1
As to B6, the EC50 is 945 nM. Regarding B7, the 50% effective concentration (EC50) was found to be 1340 nM. Molecule Ac-[αAllylPro]DA[B5(9)]DEAA[23FF]V[S8]F[Bta]Q-NH2 (staple 1-4, 4-11; also: earlier eluting HPLC isomer, E/Z not assigned, Stapled peptide) [I-390] registered an EC50 of 3420 nM. Consider B8, for which the EC50 amounted to 2060 nM. B9 returned a 50% effective concentration (EC50) of 3430 nM.

As to B10, it took 1340 nM to reach a half-maximal effect (EC50).

For the molecule Ac-[αAllylPro]DA[B5(9)]DEAAFV[S8][23FF][Bta]Q-NH2 (staple 1-4, 4-11; also: later eluting HPLC isomer, E/Z not assigned, Stapled peptide) [I-389], the EC50 stood at 5000 nM. As for B11, the EC50 is 5000 nM. Ac-[αAllylPro]DA[B5(9)]DEAA[23FF]V[S8]F[Bta]Q-NH2 (staple 1-4, 4-11; also: later eluting HPLC isomer, E/Z not assigned, Stapled peptide) [I-391] showed a concentration for a half-maximal effect (EC50) of 1910 nM. Molecule B12 had an EC50 of 552 nM. B13 registered an EC50 of 3650 nM.

With Ac-[αAllylPro]DA[B5(9)]DEAAFV[S8][23FF][Bta]Q-NH2 (staple 1-4, 4-11; also: earlier eluting HPLC isomer, E/Z not assigned, Stapled peptide) [I-388], the midpoint of the response, the EC50, lay at 5000 nM.
